# B1: Mdv1(94-314) K215A/K216A, containing the NTE and coiled coil (domain or fragment, S. cerevisiae, UniProt P47025 94-314, looked up)
# chain: DNKTCFRMLTYISDDLLNEIPTKEGLKSDADGKLLTEGGENENLRKNASKKETSLFQGFKSYLPIAELAIENTERLNYDTNGTSGTVGAKDVMSKTNERDEIHTELPNFQDSFLIPPGVETAAISSSYSPSALKSFSQTLVNSLEFLNIQKNSTLSEIRDIEVEVENLRQKKEKLLGKIANIEQNQLLLEDNLKQIDDRLDFLEEYGLEVIEANSDENAED
# Assays:
# crystal structure = target: the molecule itself; test: crystal structure
# [1] = target: B1; test: crystal structure
binding result [1],Binder,binding result (crystal structure)
–,B1,binds
binds,"Yeast Fis1(1-129), lacking the transmembrane segment (domain or fragment, S. cerevisiae, UniProt P40515 1-129, looked up) MTKVDFWPTLKDAYEPLYPQQLEILRQQVVSEGGPTATIQSRFNYAWGLIKSTDVNDERLGVKILTDIYKEAESRRRECLYYLTIGCYKLGEYSMAKRYVDTLFEHERNNKQVGALKSMVEDKIQKETL",–

# From paper PMC3323041 (The Journal of Biological Chemistry, 2012)
